Source: US20240368575A1, “AN ENGINEERED YEAST CELL FOR THE DELIVERY OF ANTIBIOTIC-INACTIVATING ENZYMES” (priority 2021, published 2024)

Legend:
[1] = system: C[C@@H](O)[C@H]1C(=O)N2C(C(=O)O)=C(SCCN=CN)C[C@H]12; experiment: purified protein, by the assay type; conditions: other: purified BL3 protein, assay with imipenem, 30° C., 50 mM HEPES pH 7.5, 50 μM ZnSO4
[2] = biological target: P3A variant of the beta-lactamase from Bacillus licheniformis 749/C (BL), SEQ ID NO: 12 (Bacillus licheniformis, UniProt P00808, D288N); experiment: Steady-state kinetic parameters of purified BL (P3A) beta-lactamase, ampicillin hydrolysis; type: biochemical; conditions: purified BL protein; assay with ampicillin, 30° C., 50 mM HEPES pH 7.5
P3A variant of the beta-lactamase from Bacillus licheniformis 749/C (BL), SEQ ID NO: 12, sequence (P00808 46-307 D288N): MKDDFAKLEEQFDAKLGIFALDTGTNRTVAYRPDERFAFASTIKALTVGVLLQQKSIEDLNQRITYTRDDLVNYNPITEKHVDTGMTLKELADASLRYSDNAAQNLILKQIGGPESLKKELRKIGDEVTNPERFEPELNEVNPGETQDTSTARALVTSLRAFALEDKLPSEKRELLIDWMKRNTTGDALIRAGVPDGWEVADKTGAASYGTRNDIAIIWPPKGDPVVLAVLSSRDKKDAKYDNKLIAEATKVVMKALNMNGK

[3] = biological target: VIM-2 metallo-beta-lactamase variant (BL2), SEQ ID NO:115 (parent VIM-2, SEQ ID NO:8) (Pseudomonas aeruginosa, UniProt Q9K2N0, E156D/Q48H/Q60R/V27S/V36A); experiment: Steady-state kinetic parameters of purified BL2 beta-lactamase, imipenem hydrolysis; type: biochemical; conditions: purified BL2 protein; assay with imipenem, 30° C., 50 mM HEPES pH 7.5, 50 μM ZnSO4
Description: β-lactamase genes bl2 and bl3, encoding respectively the metallo β-lactamases VIM-2 variant of amino acid sequence SEQ ID NO:115 and BcII from Bacillus cereus of amino acid sequence SEQ ID NO:117, were heterologously expressed in S. boulardii.
Each sample was measured in triplicates.

[4] = system: CC1(C)S[C@@H]2[C@H](NC(=O)[C@H](N)c3ccccc3)C(=O)N2[C@H]1C(=O)O; experiment: Steady-state kinetic parameters of purified BL (P3A) beta-lactamase, ampicillin hydrolysis; type: biochemical, Bacillus licheniformis 749/C; conditions: other: purified BL protein, assay with ampicillin, 30° C., 50 mM HEPES pH 7.5

## BcII metallo-beta-lactamase from Bacillus cereus (BL3), SEQ ID NO:117 (Bacillus cereus)
[1]
  Km: 220 µM
  kcat: 115 s⁻¹

## CC1(C)S[C@@H]2[C@H](NC(=O)[C@H](N)c3ccccc3)C(=O)N2[C@H]1C(=O)O [ampicillin]
[2]
  kcat: 1,345 s^−1

## C[C@@H](O)[C@H]1C(=O)N2C(C(=O)O)=C(SCCN=CN)C[C@H]12 [imipenem]
[3]
  Km: 12 µM
  kcat: 200 s⁻¹

## P3A variant of the beta-lactamase from Bacillus licheniformis 749/C (BL), SEQ ID NO: 12 (Bacillus licheniformis; D288N)
[4]
  Km: 180 µM
